Reference: patent US7981863B2, “Treatment of Parkinson's disease with PDGF” (Neuronova AB, priority 2001, dated 2011)

Columns and labels:
Healthy Rats = experiment: ICV infusion in healthy rats, BrdU / NeuN labelling; format: in vivo, rat
Description: Male rats (12 hours light/dark regime; feeding and drinking ad libitum; 5 animals in standard cage) were infused (Alzet minipumps) in the left lateral ventricle with human recombinant PDGF-BB for 7 days at a daily dose of 36 ng/day (8 animals/group). Human recombinant BDNF (brain derived neurotrophic factor) was used as a positive control (Pencea V et al., J. Neurosci Sep. 1 (2001), 21(17):6706-17). Bromodeoxyuridine (BrdU) was also included in the infusion vehicle (artificial cerebrospinal fluid) to enable measurement of proliferation by quantitation of BrdU incorporation in the DNA. Animals were sacrificed at 7 (proliferation) or 28 days (neurogenesis) after start of treatment and brains were dissected and prepared for sectioning and immunohistochemistry (Pencea V et al., J. Neurosci Sep. 1 (2001), 21(17):6706-17).
Proliferation was measured by BrdU incorporation and diaminobenzidine (DAB) staining of HRP conjugated secondary antibodies (FIG. 7). Cells were counted in a phase contrast microscope. Neural phenotype was assessed by staining for neuronal marker NeuN by immunocytochemistry using a fluorescence readout. The secondary antibodies were labeled with FITC or Alexa Fluor568. In double staining analyses designed to measure neurogenesis, BrdU and NeuN were quantitated by fluorescence (above) and counting of cells was done in a confocal microscope. For further experimental details, see Pencea V et al., J. Neurosci Sep. 1 (2001), 21(17):6706-17. A number of brain regions were analysed.

6-OHDA Lesioned Rats = experiment: i.c.v. infusion in 6-OHDA lesioned rats, BrdU / NeuN labelling; format: in vivo, rat
Description: Animal handling and surgical procedures were carried out according to the ethical and regulatory permits set forth by Jordbruksverket and Lund University. Adult female Sprague-Dawley rats (B&K Universal AB) rats weighing 220-250 g, were housed in pairs with a 12 h light-dark cycle with free access to food and water. To lesion the substantia nigra, rats were fixed into a stereotaxic frame and 6-OHDA ([…] in 0.02% ascorbate saline, Sigma) was injected at a rate of 1 μl/min in 2 deposits of 2 and 2.5 μl into the right ascending mesostriatal forebrain bundle at the following coordinates: 4.4 mm caudal to bregma, 1.2 mm lateral to midline, 7.8 mm below dura; 4.0 mm caudal, 0.8 mm lateral, 8.0 mm below dura, respectively (Paxinos and Watson, 1998). Three weeks after 6-OHDA injections, the completeness of the lesion was assessed with the amphetamine-induced rotation test. D-methylamphetamine (2.5 mg, i.p.) was injected 5 min prior to placing the rat in an automated rotormeter bowl that measured the number of rotations over 90 min.
Before implantation, an Alzet Model 2002 osmotic minipump (200 μl; flow rate: 0.5 μl/h, 12 μl/day) was prefilled with 200 μl of compound solution (see below) and placed in a NaCl (0.9%) solution warmed in water bath (37° C.) 36 hrs before implantation. Rats were anesthetized with halothane in a mixture of nitrous oxide/oxygen (70:30) and maintained with 2-3% halothane. For implantation, rats were placed in a stereotaxic frame and the cannula of the Alzet Brain Infusion kit II was placed into the right lateral ventricle (coordinates: AP=−0.3 mm posterior bregma, L=1.5 mm lateral to satura sagittalis, 4.5 mm the dura; Paxinos and Watson, 1998), and secured to the skull with screws and dental cement. The minipump was then placed subcutaneously in the mid-scapular region. The scalp was treated with lidocaine gel before suturing. Twelve days after insertion, the rats were briefly anaesthetized with halothane in order to remove the pump. Removed pumps had the remaining solution volume and weight recorded.
The effects of infused PDGF-BB and BDNF following 6-OHDA lesions were investigated at 2 different time points: at 12 days or 5 weeks after minipump insertion. Rats receiving human PDGF-BB (order # 220-BB-050; 50 μg, R&D Systems) each had 36 ng/d of PDGF dissolved in 0.1 M PBS (3 μg/ml). Rats receiving human recombinant BDNF (order # 248-BD-025; 25 μg, R&D Systems) each had 12 ng/d of BDNF dissolved in 0.1 M PBS (1 μg/ml). BrdU was co-administered with the compound solution in the minipumps by dissolving it into the 0.1 M PBS medium. Control rats received only BrdU/PBS infusions.
Brain tissue was obtained by anesthetizing the rat and transcardially perfusing with 0.9% saline followed by 4% paraformaldehyde (PFA). Brains were stored PFA for 2 hours, then transferred to 20% sucrose PBS and sectioned coronally on a sledge microtome at 30 μm thickness. Free-floating sections were stored in Walter's antifreeze solution at 4° C. until staining.
Following blocking, incubation of monoclonal rat anti-BrdU antibody (Harlan Sera Lab, UK) in 2% blocking solution occurred at a dilution of 1:100 at 4° C. for 36 hrs. The sections were then incubated with biotin-horse-[…] antibody (1:200) (Vector, CA) in 2% blocking solution for 2 hr and visualized with DAB-NiCl Vectastain Elite kit. The procedure for doubling labeling of BrdU with NeuN or TH was similar, except that a monoclonal rat anti-BrdU antibody (1:100; Sigma, Sweden) was incubated either with a monoclonal mouse anti-NeuN antibody (1:100; Chemicon, USA) or with a monoclonal anti-TH antibody (1:1000; Pelfreeze) in the appropriate 2% blocking solution in the dark for 36 to 48 hrs. For immunofluorescent visualization, sections were incubation in secondary antibodies: Cy3-conjugated donkey anti-rat (1:200; Jackson ImmunoResearch, PA) for BrdU; a biotinylated horse anti-mouse antibody (1:200; BA2001, Vector, CA) for NeuN; and a FITC-conjugated goat anti-rat (1:200;) for TH. […]

B1: PDGF-BB: human recombinant PDGF-BB, platelet derived growth factor B-chain homodimer (protein)
chain: SLGSLTIAEPAMIAECKTRTEVFEISRRLIDRTNANFLVWPPCVEVQRCSGCCNNRNVQCRPTQVQLRPVQVRKIEIVRKKPIFKKATVTLEDHLACKCETVAAARPVT
Cell count (BrdU, proliferation) along the lateral ventricle wall (Healthy Rats; 7-day group, ICV infusion 7 days, 36 ng/day, mean of two sections, mean +/- sem): 216 +/−25 | number of proliferating cells in the subventricular zone (Healthy Rats; 28-day group): no such statistically significant effect | neurogenesis in the striatum (Healthy Rats; 28-day group, in comparison to vehicle treated animals): significantly increase neurogenesis | BrdU positive cells in the dentate gyrus, the CA1 and the alveus (Healthy Rats; 28-day group, in comparison to vehicle-treated animals): no significant effect | BrdU positive cells in the striatum (Healthy Rats; 28-day group, cells counted in 300 × 300 μm squares): 40 ± 6.8 (p < 0.01 to vehicle, ANOVA) | absolute number of BrdU/NeuN double labelled cells in the striatum (6-OHDA Lesioned Rats; 5 weeks, FIG. 15): significantly more neurons | numbers of BrdU labelled cells in the denervated striatum (6-OHDA Lesioned Rats; 12 days after infusion, compared to PBS infusion, PDGF 36 ng/d, BDNF 12 ng/d): significantly elevated | numbers of BrdU labelled cells in the lesioned substantia nigra (6-OHDA Lesioned Rats; 12 days after infusion, compared to PBS treatment): significantly elevated | BrdU cells in the striatum co-labelled with NeuN (proportion of newly generated neurons) (6-OHDA Lesioned Rats; Week 5, no statistically significant differences): 20.9%
